Reference: article PMC12356879 (Nature Communications, 2025)

B1: LMNA_(31-123) ribosome-bound nascent chain (domain or fragment)
chain: EKEDLQELNDRLAVYIDRVRSLETENAGLRLRITESEEVVSREVSGIKAAYEAELGDARKTLDSVAKERARLQLELSKVREEFKELKARNTKK
B2: LMNA_(31-311) ribosome-bound nascent chain (domain or fragment)
chain: EKEDLQELNDRLAVYIDRVRSLETENAGLRLRITESEEVVSREVSGIKAAYEAELGDARKTLDSVAKERARLQLELSKVREEFKELKARNTKKEGDLIAAQARLKDLEALLNSKEAALSTALSEKRTLEGELHDLRGQVAKLEAALGEAKKQLQDEMLRRVDAENRLQTMKEELDFQKNIYSEELRETKRRHETRLVEIDNGKQREFESRLADALQELRAQHEDQVEQYKKELEKTYSAKLDNARQSAERNSNLVGAAHEELQQSRIRIDSLSAQLSQLQK

What was measured:
[1] = target: post-translational lamin construct with a single N-terminal cysteine (pJS81) (human) (UniProt P02545); assay: SEC
[2] = target: the molecule itself; assay: optical tweezers

Molecule	stoichiometry N [1]	mean rupture force [2]
post-translational lamin construct with a single N-terminal cysteine (pJS81) (from UniProt P02545 31-311) (domain or fragment)	2	–
B1	–	7 pN
B2	–	14 pN
